Data taken from the supplement of paper PMC10567573.

B1: TRIM43 (parent)
chain: YQEIFQQLQRSWVKMDQKSKHLKE

Variants of: B1
Test: protein stability index of a GFP-peptide fusion (GPS, HEK-293T) (PSI 1-6); higher = more stable
Conditions: c terminus: a fixed tail appended
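Note: lentivirally expressed fusions sorted by FACS into six bins by GFP to DsRed ratio, PSI derived from sequencing read proportions per bin multiplied by bin number.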

Protein stability index of substitutions, site by site:
V13: S 2.38; M 1.9; C 2.02; A 2.04; E 3.48; P 2.62; Y 2.21; K 2.3; D 2.54; H 2.48; I 2.14; R 1.53; N 2.22; T 2.08; L 1.92; F 2.07; W 1.16; Q 2.2; G 2.79
S19: I 3.05; M 2.44; C 1.99; A 3.09; L 3.31; H 1.83; F 1.95; K 1.77; G 1.86; E 2.29; D 2.68
K18: F 1.44; Y 1.86; V 1.69; W 1.77; C 1.94; S 2; R 2.57; A 2.4; M 1.64; T 2.71; L 2.31; D 2.87; Q 2.4; N 2.34; E 2.46; H 2.04; G 2.4; P 2.1; I 1.37
D16: I 2.51; N 3.48; G 1.76; H 2.73; A 3.13; K 2.35; F 3.17; L 3.47; V 1.69; Q 2.52; E 2.13; R 2.2; P 2.12; T 2.09; W 2.96
S11: T 1.81; L 2.21; A 1.34; I 2.57; E 1.75; R 1.82; Q 1.8; K 1.93; V 1.63; C 1.97; N 2.73; M 1.93; W 1.56; Y 2.65; P 2.3; G 2.1; D 2.68; H 2.18
M15: Q 2.3; K 2.61; G 2.35; R 2.5; V 2.13; A 2.37; N 2.59; W 1.48; T 2.53; L 2; Y 2.05; P 3.15; I 1.62; D 2.54; E 2.87; C 2.32; H 2.29; S 2.46; F 1.99
W12: T 2.88; A 3.07; I 2.29; C 2.34; S 2.55; P 3.48; V 2.69; R 3.12; F 2.57; H 2.5; D 2.78; Y 2.18; N 2.81; K 2.7; M 2.42; E 3.16; L 2.4; G 2.84; Q 2.65
Q17: I 1.73; R 2.19; H 2.12; W 1.72; S 2.29; P 2.21; G 1.96; N 2.89; Y 1.72; T 2.62; L 1.92; V 2.17; M 1.73; E 1.98; C 2.05; D 2.01; K 2.1; A 2.1; F 2.68
K14: V 2.18; Y 2.2; D 2.77; W 2.61; P 2.19; G 2.6; L 2.44; S 2.1; H 2.04; I 1.86; C 1.97; M 2.37; R 1.94; A 2.1; E 2.92; F 2.35; Q 2.36; N 2.99; T 2.25
R10: V 2.26; S 2.71; Y 1.79; Q 2.35; M 2.57; P 2.55; T 1.94; W 1.89; N 2.84
